{"source": "paper PMC5225439", "about": "“Nucleoplasmin-like domain of FKBP39 from Drosophila melanogaster forms a tetramer with partly disordered tentacle-like C-terminal segments” (Scientific Reports, 2017)", "key": {"[1]": {"molecular_target": "the molecule itself", "test": "SEC-MALS; 100 μl of 1 mg/ml FKBP39 on Superdex 200 Increase 10/300 in buffer C (50 mM Na2HPO4, 150 mM NaCl, pH 7.0), 0.5 ml/min"}, "[2]": {"molecular_target": "the molecule itself", "test": "AUC; sedimentation velocity, 20 °C, buffer C (50 mM Na2HPO4, 150 mM NaCl, pH 7.0), 0.2 and 0.5 mg/ml protein, 40,000 rpm, absorbance at 280 nm, continuous c(s) distribution in SEDFIT"}}}
{"protein": "39-kDa FK506-binding protein (FKBP39) from Drosophila melanogaster, full-length, with C-terminal 8x His-tag (natural protein, UniProt P54397 1-357, looked up, N-terminal NPL 1-86, central charged region 87-256, C-terminal FKBD 257-357; Cloned BamHI/HindIII into the modified vector pQE80L-XH; The forward primer puts TCG (Ser) before the FKBP39 ATG, so a few vector-derived residues precede the natural start; also called full-length FKBP39; recombinant FKBP39; source: E. coli BL21(DE3)pLysS, purified (Co2+-TALON resin, Superdex 200 SEC)) MSMFWGLNMKPERKYSQTIIKSFHISGVALDKGQEAKLYLAAEKQEYIVATVTKAIPQVALDLNFSKGDRIMFYTAGDASVSLLGYLHDIDSEDDEDDDQMTIENLLNSKAIKNSKKSEDDEDENESGEEDEEDTDDDSQIIEEYESFLENGEEEDDDDVDEDNEESGEEDEQDSDDSEAEEEQPKAKVAKLSPGASAKKSGKEQNGVAKKEEAKQQQKKKEKPEAKKEQPKAKEPAKQQPASKDPRTITGGVKIVDQVVGKGEEAKQGKRVSVYYIGRLQSNNKTFDSLLKGKPFKFALGGGEVIKGWDVGVAGMKVGGKRVITCPPHMAYGARGAPPKIGPNSTLVFEVELKAVH", "values": [{"measurement": "stoichiometry N", "setting": "[1]", "result": 2}, {"measurement": "stoichiometry N", "setting": "[2]", "result": 4}]}
